In IntAct's records for PubMed 9753447:

B1: Ferredoxin--NADP reductase (Anabaena sp. (strain PCC 7119)), P21890 (parent)
chain: MSNQGAFDGAANVESGSRVFVYEVVGMRQNEETDQTNYPIRKSGSVFIRVPYNRMNQEMQRITRLGGKIVTIQTVSALQQLNGRTTIATVTDASSEIAKSEGNGKATPVKTDSGAKAFAKPPAEEQLKKKDNKGNTMTQAKAKHADVPVNLYRPNAPFIGKVISNEPLVKEGGIGIVQHIKFDLTGGNLKYIEGQSIGIIPPGVDKNGKPEKLRLYSIASTRHGDDVDDKTISLCVRQLEYKHPESGETVYGVCSTYLTHIEPGSEVKITGPVGKEMLLPDDPEANVIMLATGTGIAPMRTYLWRMFKDAERAANPEYQFKGFSWLVFGVPTTPNILYKEELEEIQQKYPDNFRLTYAISREQKNPQGGRMYIQDRVAEHADELWQLIKNQKTHTYICGLRGMEEGIDAALSAAAAKEGVTWSDYQKDLKKAGRWHVETY
partner: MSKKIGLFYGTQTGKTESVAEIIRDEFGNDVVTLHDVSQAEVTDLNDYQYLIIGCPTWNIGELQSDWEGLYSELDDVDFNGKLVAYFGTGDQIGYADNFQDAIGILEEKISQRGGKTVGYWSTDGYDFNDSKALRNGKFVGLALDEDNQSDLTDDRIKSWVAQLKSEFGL
B2: Ferredoxin--NADP reductase (Anabaena sp. (strain PCC 7119)), P21890 (parent)
chain: B1 chain

Variants of: B1
Conditions: with flav_nosso isiB

effect of a mutation on the interaction | Variant
decreasing interaction | K206Q
decreasing interaction | K206S
decreasing interaction | K206E

Variants of: B2
Conditions: with fer1_nosso petF

effect of a mutation on the interaction | Variant
decreasing interaction | K206S
decreasing interaction | K206Q
decreasing interaction | K206E
